Drawing on patent publication US20140315822A1 (INSTITUT PASTEUR, published 2014), this text covers Kd for one molecule.

B1: PDZ domain of the human MAST2 protein (other)
chain: MRPPIIIHRAGKKYGFTLRAIRVYMGDSDVYTVHHMVWHVEDGGPASEAGLRQGDLITHVNGEPVHGLVHTEVVELILKSGNKVAISTTPLEN
For orientation: Kd means the constant that tells how readily two partners part at equilibrium. High values mean weaker binding, low ones tighter binding. For B1, the Kd is 400 nM in the assay with 443; 210 nM with 439; 126 nM in the assay with 461; 188 nM in the assay with 460; 238 nM with 453; 130 nM in the assay with 455.
